Key:
[1] = biological target: T1, recombinant human AceCS2^myc-His (residues 38-689, C-terminal myc-His tag, purified from E. coli), acetylated at Lys642 (UniProt Q9NUB1)
T1 sequence: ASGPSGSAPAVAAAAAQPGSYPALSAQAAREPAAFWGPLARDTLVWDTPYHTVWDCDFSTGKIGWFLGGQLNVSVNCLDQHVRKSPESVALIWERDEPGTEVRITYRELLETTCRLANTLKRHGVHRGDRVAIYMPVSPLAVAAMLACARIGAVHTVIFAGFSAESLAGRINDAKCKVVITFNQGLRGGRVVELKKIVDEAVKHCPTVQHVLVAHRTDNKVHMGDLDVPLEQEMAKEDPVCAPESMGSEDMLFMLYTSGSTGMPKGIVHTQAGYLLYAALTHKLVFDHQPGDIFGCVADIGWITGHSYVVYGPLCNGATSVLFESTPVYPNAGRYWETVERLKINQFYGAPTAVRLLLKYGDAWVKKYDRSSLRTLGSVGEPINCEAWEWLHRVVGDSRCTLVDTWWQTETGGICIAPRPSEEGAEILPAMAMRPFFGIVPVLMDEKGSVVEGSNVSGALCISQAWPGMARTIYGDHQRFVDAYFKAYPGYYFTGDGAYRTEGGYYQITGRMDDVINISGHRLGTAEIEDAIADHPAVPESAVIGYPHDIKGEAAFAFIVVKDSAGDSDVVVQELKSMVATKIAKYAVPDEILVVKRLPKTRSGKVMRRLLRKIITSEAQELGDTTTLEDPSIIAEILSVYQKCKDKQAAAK

[2] = biological target: T2, recombinant human AceCS2^myc-His (residues 38-689, C-terminal myc-His tag, purified from E. coli), acetylated at Lys642, Q9NUB1
T2 chain: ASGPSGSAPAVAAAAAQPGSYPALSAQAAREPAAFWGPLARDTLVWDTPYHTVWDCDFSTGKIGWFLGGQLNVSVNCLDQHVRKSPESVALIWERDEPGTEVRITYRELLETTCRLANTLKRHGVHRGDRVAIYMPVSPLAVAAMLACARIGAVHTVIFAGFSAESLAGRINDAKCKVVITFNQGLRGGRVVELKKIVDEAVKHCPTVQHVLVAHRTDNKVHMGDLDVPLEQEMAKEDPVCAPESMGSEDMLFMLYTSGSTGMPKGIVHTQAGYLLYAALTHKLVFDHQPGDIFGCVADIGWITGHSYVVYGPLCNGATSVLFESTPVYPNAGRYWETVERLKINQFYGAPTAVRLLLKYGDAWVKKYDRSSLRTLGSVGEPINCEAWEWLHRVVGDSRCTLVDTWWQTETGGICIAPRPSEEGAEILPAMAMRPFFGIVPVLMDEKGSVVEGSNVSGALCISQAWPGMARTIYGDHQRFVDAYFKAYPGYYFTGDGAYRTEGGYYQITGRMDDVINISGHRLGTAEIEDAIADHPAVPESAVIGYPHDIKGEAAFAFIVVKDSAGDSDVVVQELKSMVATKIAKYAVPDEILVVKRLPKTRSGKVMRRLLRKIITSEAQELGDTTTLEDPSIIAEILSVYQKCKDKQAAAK

recombinant human SIRT5 lacking the first 38 residues (residues 39-310, myc-His tagged)
in vitro deacetylation of AceCS2 (immunoblot with acetyl-lysine-specific antibodies) [1]: both recombinant SIRT5 proteins failed to do so

recombinant human SIRT5 lacking the first 11 residues (residues 12-310, myc-His tagged)
in vitro deacetylation of AceCS2 (immunoblot with acetyl-lysine-specific antibodies) [1]: both recombinant SIRT5 proteins failed to do so

B1: Flag-tagged SIRT4 (protein)
chain: IGLFVPASPPLDPEKVKELQRFITLSKRLLVMTGAGISTESGIPDYRSEKVGLYARTDRRPIQHGDFVRSAPIRQRYWARNFVGWPQFSSHQPNPAHWALSTWEKLGKLYWLVTQNVDALHTKAGSRRLTELHGCMDRVLCLDCGEQTPRGVLQERFQVLNPTWSAEAHGLAPDGDVFLSEEQVRSFQVPTCVQCGGHLKPDVVFFGDTVNPDKVDFVHKRVKEADSLLVVGSSLQVYSGYRFILTAWEKKLPIAILNIGPTRSDDLACLKLNSRCGELLPLIDPC
in vitro deacetylation of AceCS2 [2]: did not deacetylate AceCS2 (data not shown)

B2: Flag-tagged SIRT5 (SIRT5^Flag, expressed in HEK293 or COS-1 cells) (protein)
chain: SSSMADFRKFFAKAKHIVIISGAGVSAESGVPTFRGAGGYWRKWQAQDLATPLAFAHNPSRVWEFYHYRREVMGSKEPNAGHRAIAECETRLGKQGRRVVVITQNIDELHRKAGTKNLLEIHGSLFKTRCTSCGVVAENYKSPICPALSGKGAPEPGTQDASIPVEKLPRCEEAGCGGLLRPHVVWFGENLDPAILEEVDRELAHCDLCLVVGTSSVVYPAAMFAPQVAARGVPVAEFNTETTPATNRFRFHFQGPCGTTLPEALACHENETVS
in vitro deacetylation of AceCS2 (immunoblot with acetyl-lysine-specific antibodies) [2]: it failed to deacetylate AceCS2

B3: recombinant human SIRT3 (residues 102-399, myc-His tagged, purified from E. coli) (protein)
chain: ISFSVGASSVVGSGGSSDKGKLSLQDVAELIRARACQRVVVMVGAGISTPSGIPDFRSPGSGLYSNLQQYDLPYPEAIFELPFFFHNPKPFFTLAKELYPGNYKPNVTHYFLRLLHDKGLLLRLYTQNIDGLERVSGIPASKLVEAHGTFASATCTVCQRPFPGEDIRADVMADRVPRCPVCTGVVKPDIVFFGEPLPQRFLLHVVDFPMADLLLILGTSLEVEPFASLTEAVRSSVPRLLINRDLVGPLAWHPRSRDVAQLGDVVHGVESLVELLGWTEEMRDLVQRETGKLDGPDK
acetyl-CoA synthetase specific activity of AceCS2 after incubation with SIRT3 [2]: deacetylation by SIRT3 was associated with a significant increase in enzymatic activity | in vitro deacetylation of AceCS2 (immunoblot with acetyl-lysine-specific antibodies) [2]: recombinant SIRT3 effectively deacetylated AceCS2 | in vitro deacetylation of hyperacetylated AceCS2 with NAD^+ [2]: This treatment led to a complete deacetylation of AceCS2 | time course of AceCS2 deacetylation and of its enzymatic activity [2]: incubation of AceCS2 with SIRT3 and NAD^+ caused a progressive deacetylation of AceCS2 over time

B4: recombinant human SIRT3-H248Y (residues 102-399, myc-His tagged, purified from E. coli), catalytically inactive mutant (protein)
chain: ISFSVGASSVVGSGGSSDKGKLSLQDVAELIRARACQRVVVMVGAGISTPSGIPDFRSPGSGLYSNLQQYDLPYPEAIFELPFFFHNPKPFFTLAKELYPGNYKPNVTHYFLRLLHDKGLLLRLYTQNIDGLERVSGIPASKLVEAYGTFASATCTVCQRPFPGEDIRADVMADRVPRCPVCTGVVKPDIVFFGEPLPQRFLLHVVDFPMADLLLILGTSLEVEPFASLTEAVRSSVPRLLINRDLVGPLAWHPRSRDVAQLGDVVHGVESLVELLGWTEEMRDLVQRETGKLDGPDK
in vitro deacetylation of AceCS2 (immunoblot with acetyl-lysine-specific antibodies) [2]: the catalytically inactive SIRT3-H248Y mutant did not deacetylate AceCS2, despite the presence of NAD^+ | in vitro deacetylation of hyperacetylated AceCS2 with NAD^+ [2]: No deacetylation of AceCS2 was observed when NAD^+ was omitted from the reaction, or when a catalytically inactive SIRT3 mutant (H248Y) was used | time course of AceCS2 deacetylation [2]: could not be observed with the inactive SIRT3-H248Y mutant

B5: Flag-tagged SIRT3 (SIRT3^Flag, expressed in HEK293 or COS-1 cells) (protein)
chain: ISFSVGASSVVGSGGSSDKGKLSLQDVAELIRARACQRVVVMVGAGISTPSGIPDFRSPGSGLYSNLQQYDLPYPEAIFELPFFFHNPKPFFTLAKELYPGNYKPNVTHYFLRLLHDKGLLLRLYTQNIDGLERVSGIPASKLVEAHGTFASATCTVCQRPFPGEDIRADVMADRVPRCPVCTGVVKPDIVFFGEPLPQRFLLHVVDFPMADLLLILGTSLEVEPFASLTEAVRSSVPRLLINRDLVGPLAWHPRSRDVAQLGDVVHGVESLVELLGWTEEMRDLVQRETGKLDGPDK
in vitro deacetylation of AceCS2 (immunoblot with acetyl-lysine-specific antibodies) [2]: immunoprecipitated Flag-tagged SIRT3 deacetylated AceCS2 in a NAD^+-dependent manner

From patent publication US20090061015
